Assay results: patent US20140289906A1, “Compositions Having Dicamba Decarboxylase Activity and Methods of Use” (priority 2013, published 2014)

B1: 107 (protein, listed as Rhodopseudomonas palustris)
chain: MAIIDIHGHYTTAPKALEDWRNRQIAGIKDPSVMPKVSELKISDDELQASIIENQLKKMQERGSDLTVFSPRASFMAHHIGDFNVSSTWAAICNELCYRVSQLFPDNFIGAAMLPQSPGVDPKTCIPELEKCVKEYGFVAINLNPDPSGGHWTSPPLTDRIWYPIYEKMVELEIPAMIHVSTSCNTCFHTTGAHYLNADTTAFMQCVAGDLFKDFPELKFVIPHGGGAVPYHWGRFRGLAQEMKKPLLEDHVLNNIFFDTCVYHQPGIDLLNTVIPVDNVLFASEMIGAVRGIDPRTGFYYDDTKRYIEASTILTPEEKQQIYEGNARRVYPRLDAALKAKGK
B2: 101 (protein, listed as Aquifex aeolicus)
chain: MAQKIALCITGASGVIYGIKLLQVLEELDFSVDLVISRNAKVVLKEEHSLTFEEVLKGLKNVRIHEENDFTSPLASGSRLVHYRGVYVVPCSTNTLSCIANGINKNLIHRVGEVALKERVPLVLLVREAPYNEIHLENMLKITRMGGVVVPASPAFYHKPQSIDDMINFVVGKLLDVLRIEHNLYKRWRG
B3: 102 (protein, listed as Lactobacillus plantarum)
chain: MATKTFKTLDDFLGTHFIYTYDNGWEYEWYAKNDHTVDYRIHGGMVAGRWVTDQKADIVMLTEGIYKISWTEPTGTDVALDFMPNEKKLHGTIFFPKWVEEHPEITVTYQNEHIDLMEQSREKYATYPKLVVPEFANITYMGDAGQNNEDVISEAPYKEMPNDIRNGKYFDQNYHRLNK
B4: 10 (protein, listed as Starkeya novella)
chain: MARKIALEEHFTTPELAGKYVARPTQSDALFADIERRLADFDELRLEMMDRAEIDLMVLSVTTPGVQGVRDTGEAIRLARGANDFLAREVQKRPSRYAGFAHLAMQDAEAAATELERAVRELGFRGALINGQTNGHYLDEDQYAPFWERVQELDVPVYLHPGNMADSPAMFAHRPELGGPIWAWTAETAAHALRLVFGGTFTRFPGAKVILGHMGETLPFLLWRLDSRREFDLGEKLAPDALPSAIIKRNIAVTTSGVCDPAPLVAALQALSDDNVMFSVDYPYEDPQLASKFIETAPIGEETRAKVCHGNAERLLGL
B5: 105 (protein)
chain: MAIDFHVHLDLYPDPVAVARACEERQLTVLSVTTTPAAWRGTLALAAGRPHVWTALGFHPEVVSERAADLPWFDRYLPETRFVGEVGLDGSPSLRGTWTQQFAVFQHILRRCEDHGGRILSIHSRRAESEVLNCLEANPRSGTPILHWYSGSVTELRRAISLGCWFSVGPTMVRTQKGAALIRSMPRDRVLTETDGPFLELDGQAALPWDVKSVVEGLSKIWQIPASEVERIVKENVSRLLGTVR
modifications: Deinococcus radiodurans
B6: 9 (protein, listed as Octadecabacter antarcticus)
chain: MATPKITFEEHFMAPGFEKHSEAFLKLIPRDQAEILTRRLGDFDGERIETMDRGGITRSIISLTGPGTQGEAVEKAVSAAQGANDFLAEKISKKPDRLGGLATLPMHDPDAAARELNRAVNDLGLQGCLVNTHTHGAYYEGTDYDPFWAEVEKLGVPFYLHPSNAYVTPHVLGGMPVLQGATWGWGVETGSHALRILFGGVFDRFPDVKLVLGHMGEALPFLRWRYDSRFGAYPMGVSLDRAPSAYFGSNILITTSGVCSHPSLIGAIGEMGADAVMFSVDYPYEDTDLAVEFIETAPLEDATRVKICHDNAARLFGMPTLAAKEGA
B7: 103 (protein)
chain: MAMEIPTEEIKFLKKEDVQNIDLNGMSKKERYEIWRRIPKVELHCHLDLTFSAEFFLKWARKYNLQPNMSDDEILDHYLFTKEGKSLAEFIRKAISVSDLYRDYDFIEDLAKWAVIEKYKEGVVLMEFRYSPTFVSSSYGLDVELIHKAFIKGIKNATELLNNKIHVALICISDTGHAAASIKHSGDFAIKHKHDFVGFDHGGREIDLKDHKDVYHSVRDHGLHLTVHAGEDATLPNLNTLYTAINILNVERIGHGIRVSESDELIELVKKKDILLEVCPISNLLLNNVKSMDTHPIRKLYDAGVKVSVNSDDPGMFLSNINDNYEKLYIHLNFTLEEFMIMNNWAFEKSFVSDDVKSELKALYF
modifications: Plasmodium yoelii yoelii
B8: 104 (protein)
chain: MANILQEPIDFLKKEELKNIDLSQMSKKERYKIWKRIPKCELHCHLDLCFSADFFVSCIRKYNLQPNLSDEEVLDYYLFAKGGKSLGEFVEKAIKVADIFHDYEVIEDLAKHAVFNKYKEGVVLMEFRYSPTFVAFKYNLDIELIHQAIVKGIKEVVELLDHKIHVALMCIGDTGHEAANIKASADFCLKHKADFVGFDHGGHEVDLKEYKEIFDYVRESGVPLSVHAGEDVTLPNLNTLYSAIQVLKVERIGHGIRVAESQELIDMVKEKNILLEVCPISNVLLKNAKSMDTHPIRQLYDAGVKVSVNSDDPGMFLTNINDDYEELYTHLNFTLEDFMKMNEWALEKSFMDSNIKDKIKNLYF
modifications: Plasmodium Vivax
B9: 11 (protein)
chain: MALGKIALEEAFALPRFEEKTRWWASLFSVDPETHVKEITDINKLRIEHADKYGVGYQILSYTAPGVQDIWDPVEAQALAVEINDYIAEQIRDKPDRFGAFATLSMHNPQEAASELRRCVQTYGFKGALVNDTQRAGPDGDDMIFYDNASWDIFWQTCTELDVPLYLHPRNPTGTIYEKLWADRKWLVGPPLSFAQGVSLHVLGMVTNGVFDRHPNLQLIMGHLGEHVPFDMWRINHWFEDRKKLLGLAETCKKTIREYFAQNIWITTSGHFSTTTLNFCMAEVGVDRILFSIDYPFETFEDACVWFDGAELNLSDKAKIGRDNAARLFKLGAFRDYDAKVKA
modifications: Aspergillus niger
B10: 99 (protein, listed as Ralstonia solanacearum)
chain: MAIIDCHGHFTTAPTALEDWRKRQIANLATPALGPSPDDLKISDDALTEAIRANQLRLMQARGSDLTIFSPRASFMAHHIGDFHTSATWAAICNALCHRVSQLFPDHFVGAAMLPQSPGVDIRTCIPELARCIVDYGFVGVNLNPDPSGGHWTSPPLSDPYWFPLYEKLVEYDVPAMIHVSTSCNACFHTTGAHYLNADTTAFMQVLTSDLFRRFPTLKFVIPHGGGAVPYHWGRFRGLAQELKTPPLQEHLLHNVFFDTCVYHQPGIDLLTRVIPVDNILFASEMIGAVRGIDPETGHPFDDTRRYIDQAHTLSAEDRHKIYEGNARRVYPRLDARLKARGR
B11: 97 (protein, listed as Sphingobium sp.)
chain: MAMMIIDCHGHYTVLPKAHDEWREQQKAAFKAGQPAPPYPEISDDEIRETIEANQLRLIKERGADMTIFSPRASAMAPHVGDQSVAVPWAQACNNLIARVVDLFPETFAGVCMLPQSPEADMTSSIAELERCVNELGFIGCNLNPDPGGGHFKHPPLTDRFWYPFYEKMVELDVPAMIHVSGSCNPAMHATGAYYLAADTIAFMQLLQGNLFADFPTLRFIIPHGGGAVPYHWGRFRGLADMLKQPSLDTLLMNNVFFDTCVYHQPGINLLADVIDNKNILFGSEMVGAVRGIDPTTGHYFDDTKRYIDALDISDQERHAIFEGNTRRVFPRLDAKLKARGL
B12: 106 (protein, listed as Pyrococcus horikoshii)
chain: MAGMKFIKNLHVSKLVIDSMKALINGTIYTSFNPLKKVSGLVISHGKVIYAGDSEVAKKIVELSGGEIVDLKGKYVMPAFFDSHLHLDELGMSLEMVDLRGAKSIEELIQRLKRGKGRIIFGFGWDQDELGEWPTRKELNAIDKPVFIYRKCFHVAVANDKMLELLNLTPSKDFDEDTGIIKEKSLEEARKVINERVLTVEDYVYYIKRAQEHLLDLGVKSVSFMSVNEKALRALFYLEREGKLSINVFAYVTPEVLDKLESIGLGRFQGNRLTIAGVKLFTDGSLGARTALLSKPYSDDPSTSGQLVMEREELIRITEKARSLGLDVAIHAIGDKALDVALDVFETTGFPGRIEHASLVRDDQLERVKNLKVRLSVQPHFIISDWWIVERVGEERVKWVYRFKDLMKVAELGFSTDSPIEPADPWLTVDAAVNRGKGKVKLYELTKDQALDIKDALHSYTYGSARVSLASDIGKLEPGFKAEYIILDRDPLVVK
B13: 98 (protein)
chain: MAIIDCHGHYTTAPAAHDAFRKAQIAHHDDPQQPAPQYPHISDDALRESIEQHQLRLLRERGADMTIFSPRASTMAHHIGNEAVSQVWTQRCNDLIARVVQLYPHTFIGVCQLPQSPGVPISHSIAELERCVNELGFVGCNLNPDPSGGHWNGVPLTDRAWYPFFEKMVELDVPAMVHVSGSCNANFHATGAHYLNADTTAFMQFLEGDLFRDFPSLRFIIPHGGGAVPYHWGRFRGLADMLGKPPLATHVMRNVFFDTCVYHQPGIDLLFEVIDIDNILFGSEMVGAVRGIDPQTGHYFDDTKRYIDALTISDADKRKVFEGNARRVYPRLDAQLRARGL
modifications: Xanthomonas campestris pv.
B14: 8 (protein, listed as Metarhizium anisopliae)
chain: MARGKINFEEAFELPTLADSSREQAALYIAPKDLDRYIYHIKHPLGERLQLANSHGIGYTIYSLTVPGIQGIPDQSKAEQHATTVNDWIANEIKDHRDRLGAFAALSMHDAAQAAAELERCVRQHGFHGALLNNYQHAGPDGETYLFYDQPAYDVFWQKCVELDVPVYLHPAAPAGNYYKQMYAQRKYLVGPPLSFANDVSLHLLGLVTNGVFDRFPKLKVVVGHLGEHIPFDFWRISHWLEDVERPLAAGRGDVMSKKDLLYYFKNNIWVTTSGHFSTPTVRYVADYLGPERIMFSVDTPYETIENGVGWFDGEEDALTRALGGEDGYKKVARENAKKLFKLTKYHDCDA
B15: 96 (protein)
chain: MAPLIVDVHTHVYPPAYMQMLRSRKTVPYVHDPSNNRDPRLIILSSDDDASIPLDQRGRPVDSSYWDINVKLSFMRQHGINCSVISLANPWLDFVEPAEAQMWAERINDDLEKTCATVNKAADPGNTLTLDQKETLFAFGALPLSAPSSESVVAEIKRLKTLEHLRGVIMGTSGLGKGLDDARLDPVWEALQETDMLMFLHPHYGLPEEAYGGPETTGRYGHVLPLALGFPLETTIAVTRMLLSGVFDRFPRLKILLAHSGGTLPFLAGRIESCILHERKFISGGGDVQGPQRSVWDVLKTNIYLDAVVYGKPGLEAAMTASGSDRLLFGTDHPFFPPLDSKDNSWPSVTTNYQAIHATFDTNSKTVADVLGGNAARILNLK
modifications: Aspergillus nidulans

assay: 14C assay: 14CO2 capture from [14C]-carboxyl-labeled dicamba with IPTG-induced recombinant E. coli cells; settings: IPTG-induced recombinant E. coli cells; 14CO2 from [14C]-carboxyl-labeled dicamba

Molecule | Dicamba Decarboxylase Activity
B1 | No
B2 | No
B3 | No
B4 | Low
B5 | No
B6 | No
B7 | No
B8 | No
B9 | Low
B10 | No
B11 | No
B12 | No
B13 | No
B14 | Low
B15 | No

same assay, conditions: dicamba decarboxylation activity

Molecule | Enzymatic Detection level
B1 | No
B2 | No
B3 | No
B4 | Low
B5 | No
B6 | No
B7 | No
B8 | No
B9 | Low
B10 | No
B11 | No
B12 | No
B13 | No
B14 | Low
B15 | No
